Data set [1] can be described thus: Secondary structure (helical content) by circular dichroism. To be noted: for Helical content compared with hCT: neutral and low pH (7.0 and 3.0); for Helical content by CD: neutral pH (7.0), 25° C., ellipticity at 222 nm. It is filed as physicochemical. Here is the method:
FIG. 2. Secondary structure of calcitonin peptides measured by circular dichroism. Experiments reflect the thermal denaturation profile of the peptides at pH 7.0 and 3.0 respectively. Ellipticity was measured at 222 nm and reflects the α-helical content of the peptides. Helical content based on CD spectra calculations (25° C.) according to Chen et al. (1974). Biochemistry 13, 3350-59.
Circular dichroism and Nuclear magnetic resonance were used to characterise the structural properties of human (hCT), salmon (sCT) and 6 chR (6 chR) calcitonin. Peptide concentration was estimated by amino acid analysis.

For the next data set, the system named is T47D (HTB 133) cells. Briefly: Calcitonin activity by cyclic AMP intracellular accumulation. Format: cell-based, Human. Conditions: for cAMP stimulation compared with basal levels: saturation concentration 1·10^−6 M, 15 min at 37° C., T47D cells. The text has this: Activity tests may be carried out in suitable animal models using, for example chickens or mice. Activity can also be monitored in vitro, for example in cellular cultures. LLC-PKI kidney cells may be used, for which calcitonin has been reported to increase alkaline phosphatase activity and cAMP levels Wohlwend A et al (1985) Biochem Biophys Commen 131 537-542, Miyamoto K. I. et al (1998) Jpn. J. Pharmacol 76.193-198. […] We used a combination of two previously described systems with some modifications (Zimmerman, U. et al, 1997, J. Endocrinol. 155, 423-431; Miyamoto, K. I. et al, 1998, Jpn. J. Pharmacol 76, 193-198). Human ductal carcinoma T47D (HTB 133) cells were used for the assays.
T47D (HTB 133) cells were purchased from the American Type Culture Collection (ATCC) and grown in RPMI-1640 modified medium (ATCC) containing 2 mM L-glutamine, 10 mM HEPES, 1 mM sodium pyruvate, 4.5 g/L glucose and 1.5 g/L sodium bicarbonate. This medium was supplemented with 10% heat-inactivated fetal calf serum, 25 μg/mL gentamycin and 100 nM dexamethasone, this last to enhance the expression of calcitonin receptors. Cells were grown in a humidified atmosphere of 95% air-5% CO2 at 37° C.
Cyclic AMP (cAMP) accumulation was used to measure the degree of stimulation upon incubation in the presence of different calcitonin peptides. Typically cells were grown in multi-well plates until confluency was reached and then washed with pre-heated DPBS-glucose (Gibco, Invitrogen) to remove any traces of fetal serum. Sample solutions were prepared by dissolving different amounts of hCT, sCT and 6 chR (6 CT) in DPBS-glucose supplemented with 0.1% BSA and 1 mM IBMX (3-isobuthyl-1-methylxanthine). After being washed, cells were incubated for 15 min at 37° C. in the presence of the peptide solutions. Medium was then removed by aspiration and cells were rapidly frozen on dry-ice and then kept at −80° C. until cAMP measurements were carried out.
Cyclic AMP content of different samples was measured using a commercial AMP enzyme immunoassay (EIA) system (Biotrak, Amersham-Biotech) according to manufacturer's specifications. Different dilutions of cellular extracts were measured in order to cover the whole range of stimulation caused by calcitonin incubation. Saturation concentrations (1·10^−6 M) of the three peptides (hCT, sCT & 6chR) were used to establish the maximum capacity of stimulation for each one of the different sequences. […] All three peptides show clear stimulation effects confirming the calcitonin-like activity of the engineered 6 chR (6 CT) peptide.

A short description of data set [2]: Aggregation studies, turbidity at 340 nm. It is filed as physicochemical. Conditions: for Aggregation time (turbidity at 340 nm) / Aggregation time (development of turbidity at 340 nm) / Aggregation time (half time, turbidity at 340 nm): 37° C., pH 7.2. The procedure:
Aggregation analysis was carried out as reported previously (Arvinte, T. et al., 1993, J. Biol. Chem, 268, 6415-6422) using PBS 5 mM sodium phosphate, 145 mM NaCl, pH 7.2. (sodium phosphate saline buffer) pH 7.2 and adding a minor amount of sodium azide to prevent bacterial growth (0.1%). Samples were always incubated at 37° C.
Aggregation was monitored by measuring turbidity at 340 nm. Different concentrations of peptide were tested.

Data set [3] concerns the target calcitonin receptors on human ductal carcinoma T47D (HTB 133) cells (human) (UniProt P30988). Briefly: cell-based or functional assay. Conditions: scale: orders of magnitude compared with the basal levels.
UniProt P30988, sequence (P30988 25-474, stated change not applied): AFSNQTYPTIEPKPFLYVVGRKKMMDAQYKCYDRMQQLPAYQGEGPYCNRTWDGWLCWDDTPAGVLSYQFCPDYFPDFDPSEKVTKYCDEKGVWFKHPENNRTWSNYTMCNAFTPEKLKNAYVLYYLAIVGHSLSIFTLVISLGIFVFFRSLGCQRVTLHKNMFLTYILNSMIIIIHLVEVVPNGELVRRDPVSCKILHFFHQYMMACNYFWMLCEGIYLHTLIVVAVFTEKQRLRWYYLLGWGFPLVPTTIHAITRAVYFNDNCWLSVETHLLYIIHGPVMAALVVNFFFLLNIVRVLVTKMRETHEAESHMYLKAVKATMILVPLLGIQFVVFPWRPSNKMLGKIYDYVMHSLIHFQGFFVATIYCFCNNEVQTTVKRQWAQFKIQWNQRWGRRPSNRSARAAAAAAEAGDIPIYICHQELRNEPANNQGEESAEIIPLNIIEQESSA

Marks after values point to notes of the source that are not given here. Bridge positions count the residues as written; N and C are the ends. Ends that are not written are not given here.

For the substance “CGNLSTCMLGKLTQELRKLHTFPQTAIGVGAP (disulfide 1-7; ends not checked) [6chR]”, the “Helical content compared with hCT” value in data set [1] is given as “enhanced helical content”. In addition, the “Helical content by CD” value in data set [1] was 21.1%. The “cAMP stimulation effect compared with hCT and sCT” value in the data set with T47D (HTB 133) cells (1·10^−6 M, T47D cells (FIG. 3)) is “clearly higher than that of the hCT and even the sCT peptide”. The “cAMP stimulation compared with basal levels” value in the data set with T47D (HTB 133) cells is listed as “close to three orders of magnitude”. Also, the “Time required to aggregate relative to the human peptide” value in data set [2] was “at least two orders of magnitude larger”. The “Aggregation time (turbidity at 340 nm)” value in data set [2] (1 mg/mL filtered 0.5 μm, no aggregation detected at the end of the experiment) was “(>10 months)^c”; in data set [2] (10 mM (~35 mg/mL) unfiltered) it was 18 days; in data set [2] (10 mg/mL filtered 0.5 μm, no aggregation detected at the end of the experiment) it was “(>10 months)^c”; in data set [2] (10 mg/mL unfiltered, no aggregation detected at the end of the experiment), “(>10 months)^c”. In data set [2] (35 mg/mL, solutions not filtered), the “Aggregation behaviour compared with human calcitonin (FIG. 1)” value was “aggregates much more slowly than the human form”. Moreover, the “Time without detectable aggregation” value in data set [2] (concentrations of 10 mg/mL or below, unfiltered and filtered solutions) is given as over 10 months.
With “CGNLSTCMLGTYTQDFNKFHTFPQTAIGVGAP [Human, reference compound]”, in data set [1], the “Helical content by CD” value was found to be 11.3%. Further, the “cAMP stimulation compared with basal levels” value in the data set with T47D (HTB 133) cells is “close to three orders of magnitude”. Further, the entries for the “Aggregation time (development of turbidity at 340 nm)” value in data set [2] (1 mg/mL filtered 0.5 μm) and in data set [2] (10 mg/mL filtered 0.5 μm) were “˜45 days” and “˜26 days”, respectively. The “Aggregation time (half time, turbidity at 340 nm)” value in data set [2] (10 mM (~35 mg/mL) unfiltered) was 4 h; in data set [2] (10 mg/mL unfiltered), “˜30 hours”.
In the case of “CSNLSTCVLGKLSQELHKLQTYPRTNTGSGTP [Salmon-1]”, in data set [1], the “Helical content compared with hCT” value was “higher helical content than hCT” and the “Helical content by CD” value came to 22.5%. The “cAMP stimulation compared with basal levels” value in the data set on T47D (HTB 133) cells was “close to three orders of magnitude”.
On to “salmon calcitonin (from UniProt P01263 83-114) (peptide)”, for which, in data set [3], the intracellular cAMP accumulation in T47D cells, peptide at saturation concentration 1·10^-6 M, 15 min, cAMP EIA is 3.

The record behind these values is patent US20040176567A1, “Modified calcitonin” (priority 2001, published 2004).
